{"source": "patent US10234390", "molecules": {"B1": {"name": "Sortase A enzyme (protein)", "chain": "QAKPQIPKDKSKVAGYIEIPDADIKEPVYPGPATPEQLNRGVSFAEENESLDDQNISIAGHTFIDRPNYQFTNLKAAKKGSMVYFKVGNETRKYKMTSIRDVKPTDVGVLDEQKGKDKQLTLITCDDYNEKTGVWEKRKIFVATEVK"}, "B2": {"name": "Recombinant human MMP-1 (R&D Systems), activated with APMA (protein)", "chain": "FVLTEGNPRWEQTHLTYRIENYTPDLPRADVDHAIEKAFQLWSNVTPLTFTKVSEGQADIMISFVRGDHRDNSPFDGPGGNLAHAFQPGPGIGGDAHFDEDERWTNNFREYNLHRVAAHELGHSLGLSHSTDIGALMYPSYTFSGDVQLAQDDIDGIQAIYGRSQNPVQPIGPQTPKACDSKLTFDAITTIRGEVMFFKDRFYMRTNPFYPEVELNFISVFWPQLPNGLEAAYEFADRDEVRFFKGNKYWAVQGQNVLHGYPKDIYSSFGFPRTVKHIDAALSEENTGKTYFFVANKYWRYDEYKRSMDPGYPKMIAHDFPGIGHKVDAVFMKDGFFYFFHGTRQYKFDPKTKRILTLQKANSWFNCRKN"}}, "key": {"[1]": {"system": "T1, fluorogenic MMP peptide substrate [Dabcyl-Gaba-Pro-Gln-Gly-Leu-Glu(EDANS)-Ala-Lys-NH2]", "T1 sequence": "XXPQGLXAK"}, "[2]": {"target": "T2, Sortase A substrate Dnp-LPETG-(K-FITC)-NH2", "T2 chain": "LPETGK"}, "[3]": {"target": "T3, fluorogenic MMP peptide substrate [Dabcyl-Gaba-Pro-Gln-Gly-Leu-Glu(EDANS)-Ala-Lys-NH2] (not fully specified)", "T3 chain": "XXPQGLXAK"}}}
{"molecule": "MMP-9", "values": [{"measurement": "EDANS fluorescence intensity", "setting": "[1]", "value": "The fluorescence intensity of EDANS cleaved by MMP-9 bound with MNP-MMP9Ab"}]}
{"molecule": "B1", "values": [{"measurement": "FITC fluorescence emission (1 µg/mL Sortase A, 30 min)", "setting": "[2]", "value": "the emission of FITC after the Sortase A substrate cleaved by Sortase A enzyme"}, {"measurement": "FITC fluorescence emission at different contact times", "setting": "[2]", "value": "the longer the interaction between Sortase A enzyme and Sortase A substrate the higher emission of the FITC detected ... only until 30 min contact time"}, {"measurement": "FITC fluorescence emission, S. aureus bacterial supernatant (1 h inoculation)", "setting": "[2]", "value": "about 47.26 a.u."}, {"measurement": "FITC fluorescence intensity, 1×10^-4 µg/mL Sortase A in buffer solution", "setting": "[2]", "value": "100.2±22.7", "unit": "a.u."}, {"measurement": "FITC fluorescence intensity, wound fluid spiked with 1×10^-4 µg/mL Sortase A, 30 min", "setting": "[2]", "value": "about 82.34 a.u."}, {"measurement": "FITC fluorescence signal at different Sortase A concentrations", "setting": "[2]", "value": "this sensing platform still had an obvious signal down to fg/mL of Sortase A concentration"}, {"measurement": "increase of FITC fluorescence intensity on spiking the bacterial supernatant with Sortase A enzyme", "setting": "[2]", "value": "increased the fluorescence intensity about 112.19 a.u."}]}
{"molecule": "B2", "values": [{"measurement": "EDANS emission at 446.5 nm from peptide-functionalised pSiRM", "setting": "[3]", "value": "emission at 446.5 nm was observed"}, {"measurement": "EDANS emission under confocal microscope (microcontact-printed peptide)", "setting": "[3]", "value": "The lighter colour (blue) is the colour of EDANS emission confirming the cleavage of the MMP substrate"}, {"measurement": "EDANS fluorescence intensity at different incubation times (1.2×10^-7 M MMP-1)", "setting": "[3]", "value": "After 5 min of incubation, a significant fluorescence emission indicating the presence of MMP-1 was already detectable ... then plateaued at 15 min incubation time"}, {"measurement": "limit of detection (EDANS fluorescence after 15 min incubation)", "setting": "[3]", "value": "the calculated LOD was 7.5×10^-19 M"}, {"measurement": "shift of the resonance cavity dip (IRS)", "setting": "[3]", "value": "A small blue shift (Δλ=0.5 nm) observed by IRS after incubation with MMP-1"}]}
